Laboratory results: patent publication US20180071818, “A PROCESS FOR THE PREPARATION OF BIO-ORGANIC COATED GOLD AND SILVER NANOPARTICLES USING BLUE LIGHT” (Council of Scientific & Industrial Research, published 2018)

Target: Gelsolin (full-length) (Homo sapiens, UniProt P06396 P06396:28-782)
Assay: ELONA; aptamer-Ag nanoparticles coated directly, gelsolin 2 ug/well, anti-gelsolin detection; room temperature
Conditions: tags: Sigma; His tag inferred from capture by anti-His antibody; label: silver nanoparticle
Procedure: In case of aptamer based Ag nanoparticles formation, reaction mixture was prepared by adding 18 μl of Aptamer 10.10R (SEQ ID No. 8) (4.86 μg/μl or 18 pmoles/μl) in each 0.2 ml of reaction volume of buffer (25 mM tris pH 8, 150 mM NaCl, 5 mM MgCl₂, 10 mM KCl, 0.01% tween and 2 mM CaCl₂) with 7.2 μl of AgNO₃ of 5 mM stock solution to form Ag nanoparticles. The final molar ratio of silver ions to aptamer 10.10R was kept constant at […]. Treated the ELISA plate with 1 μg/well streptavidin (1 mg/ml) and incubated the plate overnight at 4° C. For aptamer based Ag nanoparticles coating streptavidin was not used. The wells were blocked with 3% bovine serum albumin (BSA) in PBS and kept at room temperature for 2 hours to saturate excess binding sites. The wells were then washed three times with PBST and further added with 5, 10 and 20 μl of aptamer only and aptamer Ag nanoparticles (18 pmoles/μl), making aptamer working concentration of […]. All the coatings were performed in duplicates for two conditions one with and one without gelsolin in next step. […] The absorbance was measured with a multiskan ELISA reader at 450 nm.
It was observed that the coated aptamer or aptamer_Ag nanoparticles were captured by gelsolin which was further detected using anti-gelsolin antibody using an indirect ELISA based method (FIG. 4C). […]

Chain of Gelsolin (full-length) (P06396 28-782, one chain of several): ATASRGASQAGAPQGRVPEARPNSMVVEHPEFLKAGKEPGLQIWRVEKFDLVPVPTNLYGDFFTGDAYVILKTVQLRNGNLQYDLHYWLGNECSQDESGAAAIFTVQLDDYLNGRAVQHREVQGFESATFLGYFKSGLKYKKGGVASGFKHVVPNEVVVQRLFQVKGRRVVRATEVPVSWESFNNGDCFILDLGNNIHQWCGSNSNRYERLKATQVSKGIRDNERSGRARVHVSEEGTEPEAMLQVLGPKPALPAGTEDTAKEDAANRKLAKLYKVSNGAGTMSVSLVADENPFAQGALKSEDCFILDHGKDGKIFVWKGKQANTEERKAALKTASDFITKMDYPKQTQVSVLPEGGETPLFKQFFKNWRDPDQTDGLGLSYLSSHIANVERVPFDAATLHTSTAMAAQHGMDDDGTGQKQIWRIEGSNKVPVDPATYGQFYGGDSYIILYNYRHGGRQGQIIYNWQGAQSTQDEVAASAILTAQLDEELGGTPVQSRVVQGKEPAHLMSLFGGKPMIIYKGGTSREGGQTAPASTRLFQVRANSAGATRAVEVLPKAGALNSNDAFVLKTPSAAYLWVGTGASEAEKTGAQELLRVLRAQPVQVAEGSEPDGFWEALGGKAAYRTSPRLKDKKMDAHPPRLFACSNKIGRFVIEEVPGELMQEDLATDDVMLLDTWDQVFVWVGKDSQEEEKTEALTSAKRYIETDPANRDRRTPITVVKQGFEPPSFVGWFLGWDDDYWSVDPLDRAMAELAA

B1: Aptamer 10.10R coated on Ag nanoparticles (ssDNA)
DNA: TCAAGTGGTCATGTACTAGTCAAGCACTTTCGCTGCTCGCTGGCGCCGCGCCCATCATATGTCCTTCTCTTCCCTA
binding signal: 3 fold vs aptamer only
